Entries after “also recorded” stand apart in the source; their conditions may differ. No end group written: not given here.
Key:
PSD95 = target: T1, PSD95 (Rattus norvegicus, UniProt P31016); assay: Degradation of endogenous PSD95 in cultured neurons (immunoblot); assay type: cell-based; details: for effect on endogenous PSD95 level: 25 μM bath applied
T1 construct: endogenous in cells; host or cells: primary rat neurons
Description: (§1) Primary culture of cortical neurons. Dissociated cultures of rat cortical neurons were prepared from Sprague Dawley rat embryos collected from euthanized mothers 18 days after fertilization as previously described^35. Briefly, hippocampi and cerebral cortices were extracted from embryos and incubated for 30 min in 0.25% trypsin-EDTA. Digested tissues were dissociated by trituration and plated on poly-D-lysine-coated (Sigma, P7280) plates. Plating medium consisted of Neurobasal Media (Invitrogen, 21103-049) supplemented with B27 (Invitrogen, 17504044), glutamic acid (Sigma, G8415) and GlutaMax (Invitrogen, 35050-061). After 2 days, 2/3 of the media was replaced with fresh Neurobasal feeding media consisting of Neurobasal Media, B27 and GlutaMax. Cultures were maintained at 37° C. in a humidified 5% CO2 atmosphere. Mature neurons (14-18 days in vitro (DIV)) were used for experiments.
(§2) Immunoblotting. Immunoblotting assays were carried out as previously described^36. Briefly, proteins were extracted from neurons using a lysis buffer composed of 150 mM NaCl, 50 mM Tris, pH 7.4, 0.1% SDS, 1% NP-40, 0.5% sodium deoxycholate, 1 mM EDTA, 1 mM Na3VO4, and proteinase inhibitor mixture (Thermo Fisher, PI78442). Samples were separated on 10% SDS-PAGE gels, transferred to polyvinylidene difluoride (PVDF) membrane, and immunoblotted with respective antibodies. Blots were enhanced with chemiluminescence detection reagent kit (Fisher, 32106) and visualized with Bio-Rad imager and Quantity One software. Signal intensities from each band was quantified with Bio-Rad Image Lab software, and the bands were analyzed relative to their controls from the same membrane and experiment.

α-synuclein [1] = target: T2, α-synuclein (Rattus norvegicus, UniProt P37377); assay: Degradation of endogenous α-synuclein in cultured neurons (immunoblot); assay type: cell-based; details: for effect on endogenous α-synuclein level: 25 μM bath applied, 4 hours
T2 construct: endogenous in cells; host or cells: primary rat neurons
Description: as §1, §2

DAPK1 [2] = target: T3, DAPK1 (Rattus norvegicus, UniProt F1LNN8); assay: Knockdown of native DAPK1 in cultured cortical neurons, NMDA stimulation (immunoblot); assay type: cell-based; details: for levels of endogenous DAPK1 reduced by: with Pep-1 (1:4); for levels of endogenous DAPK1 reduced by / effect on DAPK1 in cytosolic fraction / effect on DAPK1 in mitochondrial fraction / effect on DAPK1 in nuclear fraction: 2 hours after washout; for reduction of activated DAPK1 on application alone: NR2B-CTS or Pep-1 alone; for effect on DAPK1 in cytosolic fraction / effect on DAPK1 in mitochondrial fraction / effect on DAPK1 in nuclear fraction: 1 hr prior to and during NMDA
T3 construct: decreased the level of endogenous DAPK1 in cultured cortical neurons following NMDA treatment; endogenous in cells; host or cells: primary rat cortical neurons (E18, 14-18 DIV)
Description: (§3) Cell culture, transfection and treatments. HEK293 cells and COS7 cells were cultured in DMEM (Sigma, D6429-24X500ML) supplemented with 10% Fetal Bovine Serum (Invitrogen, 12483020). Cells were grown to 80% confluence in 6-well plates before transiently transfected with Lipofectamine 2000 (Invitrogen, 11668019), as according to the manufacturer's protocols. Cells were transfected for either 24 or 48 hours at 37° C. before harvesting for biochemical analyses. For experiments involving TAT or His-TAT peptides, unless otherwise specified, peptides were added 1 hour prior to NMDA insult.
as §1, §2
Cellular fractionation. Cytoplasm/nuclei fractionation was performed on cultured cortical neurons (6.0*10^6 cells/100 mm dish). Briefly, cells were washed with ice cold PBS and rocked in lysis buffer for 30 min. Cells were then collected and centrifuged to obtain a rough cytoplasmic and nuclear fraction. Supernatant was collected and further centrifuged to obtain purified cytosolic fraction. The original pellet was washed and vortexed to obtain a nuclear lysis. Mitochondrial fractionation was performed as described in the Pierce Mitochondria Isolation Kit for Cultured Cells (Thermo Scientific, 89874) user guide. Purity was assessed by immunoblotting for the presence of LB1 (nucleus only), HSP90 (cytosol only) and VDAC1 (mitochondria only).

α-synuclein [3] = target: T4, α-synuclein (Homo sapiens, UniProt P37840); assay: Knockdown of co-expressed α-synuclein in HEK cells (immunoblot); assay type: cell-based; details: for effect on α-synuclein levels: co-expression at various ratios, 48 hours
T4 construct: expressed in transfected cells; host or cells: HEK293
Description: Plasmid construction. CTS-GFP was constructed by introducing a BamHI fragment containing the CTS coding sequence into the pEGFP-N2 vector (Clontech #6081-1). The CTS coding sequence was prepared by annealing custom design oligonucleotides (Integrated DNA Technologies). mCTS-GFP was constructed by performing single point mutations to CTS-GFP plasmid. FLAG-βsyn36 was constructed by annealing oligonucleotides and inserting into pcDNA3.0 using HindIII and NotI restriction sites (HindIII, Fermentas, FD0504; NotI Fermentas, FD0594). FLAG-βsyn36-CTS was constructed by PCR using FLAG-βsyn36 as template and adding CTS coding sequence to the reverse primer. FLAG-cDAPK1 was constructed by deleting the autoinhibitory domain from WT-DAPK1 (789-936 bp). NR2Bct (1242-1342aa) was prepared by PCR using NR2B expression vector. NR2Bct-CTS fragment was obtained by inserting NR2Bct fragment into CTS-GFP using EcoRI and BglII restriction sites (EcoRI, Fermentas, FD0274; BglII, Fermentas, FD0084), then PCR, introducing NcoI and EcoRI to the fragment (NcoI, Fermentas, FD0574). His-TAT-NR2Bct-CTS was constructed by cloning NR2Bct-CTS into the pTAT/pTAT-HA plasmids (generous gift of S. Dowdy, Washington University, St. Louis, MO^31) using NcoI and EcoRI restriction sites. His-TAT-NR2Bct was constructed by mutating the first amino acid in CTS sequence into a stop codon. HA-NR2Bct-CTS was constructed by PCR using His-TAT-NR2Bct-CTS as template, with BamHI site in both forward and reverse primers, and then inserted into pcDNA3.0 with BamHI (Fermentas, FERFD0054). HA-NR2Bct-CTSm was constructed by point mutations.
as §3, §2

DAPK1 [4] = target: T3, DAPK1; assay: DAPK1 knockdown in brain, rat MCAO focal ischemia model (immunoblot, immunohistochemistry); assay type: in vivo; details: 10 mg/kg i.v.
Description: as §2
Middle cerebral arterial occlusion (MCAO). All animal experiments were performed according to protocols approved by the University of British Columbia Committee on Animal Care. Adult naïve male Sprague-Dawley rats (300-350 g, Charles River) were group housed (3-4 animals/cage) in 12 hr:12 hr light-dark cycles and had free access to rat pellet chow and water prior to surgery. Reversible MCAO with suture-insertion method was performed as described previously^37. Briefly, a nylon suture with a blunted tip was entered through the right external carotid artery of anesthetized rats and advanced to the right internal carotid artery until the right MCA was occluded. After 60 min of occlusion, the rat was reanesthetized to facilitate the removal of the occlusion. Body temperature was maintained at between 36.5 and 37.5° C. throughout the surgical procedure with a heating pad. Peptides (10 mg/kg) or vehicle control (saline; 1 ml/kg) was injected via the jugular vein. Rats were then sewn up and allowed to recover until tissue collection.
Immunohistochemistry. Rats were anesthetized and perfused with double-filtered saline and 4% paraformaldehyde (PFA) in PBS. Brains were collected, immersed in 4% PFA before subjected to cryoprotection by 30% sucrose/PBS. After the brains had sunk, they were flash frozen with dry ice before overnight freezing in −80° C. They were then sliced at […] with a cryostat, and stored in 0.1 μM PB (sodium phosphate dibasic and sodium phosphate monobasic). Prior to staining, slices were washed 3×10 min with 0.1 μM PB, permeablized and blocked in 0.1 μM PB with 1% BSA and 0.2% Triton X-100 for 30 min, and stained with anti-DAPK1 (1:100) at 4° C. for 3 days. They were then washed and stained with Alexa 488 (1:1000) at 4° C. overnight before washing and mounting.

T3 sequence (F1LNN8 1-1430): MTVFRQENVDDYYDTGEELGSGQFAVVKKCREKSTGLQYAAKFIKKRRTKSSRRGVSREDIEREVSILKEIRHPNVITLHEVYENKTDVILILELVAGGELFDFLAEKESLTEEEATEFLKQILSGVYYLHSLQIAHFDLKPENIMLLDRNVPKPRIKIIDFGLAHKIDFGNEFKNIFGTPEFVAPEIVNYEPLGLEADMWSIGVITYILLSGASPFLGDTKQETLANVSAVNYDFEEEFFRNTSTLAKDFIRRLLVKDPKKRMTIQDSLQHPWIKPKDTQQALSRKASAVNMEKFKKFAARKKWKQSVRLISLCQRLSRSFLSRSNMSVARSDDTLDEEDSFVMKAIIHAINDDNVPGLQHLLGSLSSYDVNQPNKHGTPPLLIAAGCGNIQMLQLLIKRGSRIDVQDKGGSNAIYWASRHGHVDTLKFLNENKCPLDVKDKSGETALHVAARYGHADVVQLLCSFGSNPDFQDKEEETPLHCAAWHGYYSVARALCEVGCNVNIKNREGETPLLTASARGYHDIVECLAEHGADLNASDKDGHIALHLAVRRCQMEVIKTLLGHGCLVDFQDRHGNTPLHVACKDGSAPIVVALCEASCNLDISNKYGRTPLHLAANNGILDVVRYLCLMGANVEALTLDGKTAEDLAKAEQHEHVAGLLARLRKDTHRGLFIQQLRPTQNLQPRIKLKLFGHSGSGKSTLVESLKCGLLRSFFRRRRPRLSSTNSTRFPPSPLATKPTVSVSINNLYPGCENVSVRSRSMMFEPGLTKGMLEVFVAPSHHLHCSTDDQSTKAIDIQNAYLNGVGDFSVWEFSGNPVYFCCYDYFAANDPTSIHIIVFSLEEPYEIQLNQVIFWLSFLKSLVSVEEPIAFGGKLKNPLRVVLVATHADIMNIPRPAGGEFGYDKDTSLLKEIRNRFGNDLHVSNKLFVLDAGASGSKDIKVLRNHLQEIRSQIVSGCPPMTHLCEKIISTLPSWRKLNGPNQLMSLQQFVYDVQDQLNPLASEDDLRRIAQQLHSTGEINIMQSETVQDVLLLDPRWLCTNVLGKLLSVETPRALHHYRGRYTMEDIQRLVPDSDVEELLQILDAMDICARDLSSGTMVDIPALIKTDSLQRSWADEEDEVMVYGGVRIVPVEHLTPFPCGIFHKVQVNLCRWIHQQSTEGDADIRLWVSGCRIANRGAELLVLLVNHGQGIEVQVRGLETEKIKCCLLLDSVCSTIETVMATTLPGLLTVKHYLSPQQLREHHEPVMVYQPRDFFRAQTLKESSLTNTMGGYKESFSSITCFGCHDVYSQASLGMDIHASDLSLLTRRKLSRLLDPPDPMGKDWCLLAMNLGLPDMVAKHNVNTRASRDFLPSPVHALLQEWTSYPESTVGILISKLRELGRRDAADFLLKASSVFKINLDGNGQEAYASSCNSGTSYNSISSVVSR
T1 sequence (P31016 whole entry): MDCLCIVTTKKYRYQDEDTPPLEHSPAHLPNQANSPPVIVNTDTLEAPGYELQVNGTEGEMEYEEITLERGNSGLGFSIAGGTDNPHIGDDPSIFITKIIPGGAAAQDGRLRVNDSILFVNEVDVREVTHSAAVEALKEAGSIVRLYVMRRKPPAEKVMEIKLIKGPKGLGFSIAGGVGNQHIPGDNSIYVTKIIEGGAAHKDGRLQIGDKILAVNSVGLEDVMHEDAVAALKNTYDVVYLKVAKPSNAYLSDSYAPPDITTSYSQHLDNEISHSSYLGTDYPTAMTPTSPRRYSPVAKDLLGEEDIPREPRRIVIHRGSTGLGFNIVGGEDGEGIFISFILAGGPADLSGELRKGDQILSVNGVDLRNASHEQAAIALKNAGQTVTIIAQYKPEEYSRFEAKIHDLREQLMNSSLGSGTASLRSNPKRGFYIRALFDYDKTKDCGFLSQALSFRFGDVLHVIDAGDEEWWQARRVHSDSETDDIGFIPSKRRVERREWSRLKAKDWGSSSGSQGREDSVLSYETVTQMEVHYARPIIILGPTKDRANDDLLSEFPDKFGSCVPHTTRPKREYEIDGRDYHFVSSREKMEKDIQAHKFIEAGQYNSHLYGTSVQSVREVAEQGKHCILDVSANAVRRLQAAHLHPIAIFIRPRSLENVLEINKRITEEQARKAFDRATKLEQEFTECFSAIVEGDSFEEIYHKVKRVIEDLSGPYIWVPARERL

YGRKKRRQRRRGVLYVGSKTRKFERQKILDQRFFE (Knockdown peptide targeting alpha-synuclein, with TAT protein transduction domain) [TAT-βsyn-CTM, synthetic cell-penetrating α-synuclein targeting peptide]
effect on endogenous PSD95 level (PSD95): without affecting the non-intended target PSD95; also recorded: without affecting the level of unrelated control proteins PSD-95
effect on endogenous α-synuclein level (α-synuclein [1]): significantly degraded native α-synuclein; also recorded: specifically decreased the targeted endogenous α-synuclein
effect of 3-methyladenine on α-synuclein reduction (α-synuclein [1]; 25 μM, +3-MA 10 mM): not by inhibition of macroautophagy with 3-methyladenine; also recorded: significantly decreased native α-synuclein in the presence of 3-MA
effect of NH4Cl on α-synuclein reduction (α-synuclein [1]; 25 μM, +NH4Cl 20 mM): rescued; also recorded: prevented

KKNRNKLRRQHSYKFERQKILDQRFFE (Knockdown peptide targeting DAPK1, without TAT protein transduction domain) [NR2B-CTS, synthetic DAPK1 degradation targeting peptide without TAT, delivered with Pep-1]
levels of endogenous DAPK1 reduced by (DAPK1 [2]; 10 μM, NMDA): 33.60±14.48%
levels of endogenous DAPK1 reduced by (DAPK1 [2]; 25 μM, NMDA): 43.65±2.05%
levels of endogenous DAPK1 reduced by (DAPK1 [2]; 50 μM, NMDA): 63.88±6.18%
reduction of activated DAPK1 on application alone (DAPK1 [2]; NMDA): not produced
effect on DAPK1 levels in non-NMDA treated neurons (DAPK1 [2]; delivered by Pep-1, no NMDA): did not affect DAPK1 levels
DAPK1 decrease (DAPK1 [2]; with Pep-1, 1 hour following NMDA and peptide washout): 58.27±5.48%
DAPK1 decrease (maximum level) (DAPK1 [2]; with Pep-1, 2 hours after washout): 78.79±1.15%
effect of NH4Cl on DAPK1 reduction (DAPK1 [2]; with Pep-1, NMDA, +NH4Cl 20 mM): fully rescued

FLAG-βsyn36: expressed FLAG-tagged β-synuclein 36-45 peptide without CTS ({FLAG}-GVLYVGSKTR; UniProt Q16143 36-45, looked up, fragment) [reference compound]
effect on α-synuclein levels (α-synuclein [3]): did not significantly affect

FLAG-βsyn36-CTS: expressed FLAG-tagged peptide of β-synuclein 36-45 and CTS (untagged: SEQ ID NO:1 GVLYVGSKTRKFERQKILDQRFFE) ({FLAG}-GVLYVGSKTRKFERQKILDQRFFE)
effect of lysosome inhibitor on peptide-induced α-synuclein reduction (α-synuclein [3]; +NH4Cl 20 mM): completely rescued; also recorded: prevented
effect on α-synuclein levels (α-synuclein [3]): significantly decreased α-synuclein levels in a dose-dependent manner
effect on α-synuclein levels (α-synuclein [3]; listed as βsyn36-CTS): constitutively reduced α-synuclein in a dose-dependent manner
α-synuclein reduced by, of control α-synuclein levels (α-synuclein [3]; co-expression ratio 2:1, 48 hours): 42.89%±11.34%
α-synuclein reduced by, of control α-synuclein levels (α-synuclein [3]; co-expression ratio 4:1, 48 hours): 46.49%±5.72%
α-synuclein reduced by, of control α-synuclein levels (α-synuclein [3]; co-expression ratio 8:1, 48 hours): 52.18%±6.61%
α-synuclein reduced by, of control α-synuclein levels (α-synuclein [3]; co-expression ratio peptide:α-synuclein 1:1, 48 hours): 32.40%±7.14%

YGRKKRRQRRRKLSSIESDVKFERQKILDQRFFE (targeted knockdown peptide targeting PSD95, with TAT PTD) [TAT-NR2B9c-CTM, PSD-95 targeting peptide]
effect on endogenous PSD95 level (PSD95): significantly reduced PSD95; also recorded: effectively degraded endogenous PSD95
effect of NH4Cl on PSD95 reduction (PSD95; 25 μM, +NH4Cl): rescued PSD95 degradation
effect on endogenous α-synuclein level (α-synuclein [1]): without perturbing untargeted protein α-synuclein

KETWWETWWTEWSQPKKKRKV [Pep-1, short amphipathic intracellular delivering carrier peptide, reference compound]
reduction of activated DAPK1 on application alone (DAPK1 [2]; NMDA): not produced

YGRKKRRQRRRKKNRNKLRRQHSYKFERQKILDQRFFE (Knockdown peptide targeting DAPK1, with TAT protein transduction domain) [TAT-NR2B-CTS]
level of DAPK1 in ischemic side, of that on the contralateral side (DAPK1 [4]; 1 hour following reperfusion, 60 min MCAO): 43.3%
region specificity of DAPK1 knockdown (immunohistochemistry) (DAPK1 [4]; brain sections, listed as TAT-NR2BCTM): specific to stroke-damaged areas; also recorded: selectively reduced the level of DAPK1
effect on DAPK1 levels in brain tissues (immunoblot) (DAPK1 [4]; ischemic vs contralateral side, listed as TAT-NR2BCTM): significant reduction in DAPK1 levels only in the ischemic side of the brain; also recorded: specific knockdown of DAPK1 only in tissues collected from the infract side
effect of siRNA-mediated Lamp2a knockdown on DAPK1 knockdown (DAPK1 [2]; 25 μM peptide, NMDA, Lamp2a siRNA 60 pmol 3 days): inhibition of TAT-NR2BCTM induced knockdown of DAPK1
effect on DAPK1 in cytosolic fraction (DAPK1 [2]; 25 μM): reduced the levels of DAPK1
effect on DAPK1 in mitochondrial fraction (DAPK1 [2]; 25 μM): reduced the levels of DAPK1
effect on DAPK1 in nuclear fraction (DAPK1 [2]; 25 μM): reduced the levels of DAPK1
effect on DAPK1 in cytosolic fraction (DAPK1 [2]; 25 μM, listed as TAT-NR2BCTM): significantly decreased DAPK1
effect on DAPK1 in mitochondrial fraction (DAPK1 [2]; 25 μM, listed as TAT-NR2BCTM): significantly decreased DAPK1
effect on DAPK1 in nuclear fraction (DAPK1 [2]; 25 μM, listed as TAT-NR2BCTM): significantly decreased DAPK1
effect of macroautophagy inhibitor on DAPK1 knockdown (DAPK1 [2]; NMDA, +3-MA): did not alter
effect of lysosomal inhibitor on DAPK1 reduction (DAPK1 [2]; synthetic peptide 25 μM, NMDA, +NH4Cl 20 mM): rescued; also recorded: prevented
effect on DAPK1 level after NMDA treatment (DAPK1 [2]; synthetic peptide 25 μM, prior to and during NMDA): significant reduction of DAPK1; also recorded: decreased native DAPK1
